The source of these data is patent US20180244768A1 (published 2018).

Experiment [1] concerns the target T1, human thyroglobulin (TG) peptide on HLA-A*02:01 (human).
T1 peptide: NLFGGKFLV
As to the kind of experiment: cytokine release. The procedure: (§1) Interferon (IFN)-γ release by transduced PBL was determined as previously described in Wang et al., J. Immunol. Methods, 366(1-2): 43-51 (2011). Briefly, retrovirally-transduced cells (1×10⁵) were co-cultured with 5×10⁴ target cells (XTC, XTC/A2, Cos A2, or Cos A2 transfected with TG) or control tumor cell lines for 18-22 hrs in RPMI with 10% FBS at 37° C., 5% CO₂. On the subsequent day, IFN-γ secretion was determined by enzyme-linked immunosorbent assay (ELISA).

Experiment [2] addresses T2, human thyroglobulin (TG) peptide on HLA-A*02:01 (human).
T2 peptide: LVLEIFTLL
Kind of experiment: cytokine release. The procedure:
as §1

B1: murine anti-TG TCR (TCR, V domains shown)
Valpha: GEQVEQRPPHLSVREGDSAVIICTYTDPNSYYFFWYKQEPGAGLQLLMKVFSSTEINEGQGFTVLLNKKDKQLSLNLTAAHPGDSAVYFCAVSSSGSWQLIFGSGTQLTVMP
Vbeta: NSKVIQTPRYLVKGQGQKAKMRCIPEKGHPVVFWYQQNKNNEFKFLINFQNQEVLQQIDMTEKRFSAECPSNSPCSLEIQSSEAGDSALYLCASLGGSQDTQYFGPGTRLLVL
B1: the binding result in experiment [1] is on record as “recognises”.

B2: human anti-TG TCR (TCR, V domains shown)
Valpha: RKEVEQDPGPFNVPEGATVAFNCTYSNSASQSFFWYRQDCRKEPKLLMSVYSSGNEDGRFTAQLNRASQYISLLIRDSKLSDSATYLCVVHSSNTGKLIFGQGTTLQVKP
Vbeta: NAGVTQTPKFQVLKTGQSMTLQCAQDMNHEYMSWYRQDPGMGLRLIHYSVGAGITDQGEVPNGYNVSRSTTEDFPLRLLSAAPSQTSVYFCASSYSLTSGGALVSYEQYFGPGTRLTVT
For the molecule B2, the binding result in experiment [2] is on record as “recognises”.
